The target in data set [1] is Cdh23-EC1+2 (mouse cadherin-23 extracellular repeats EC1 and EC2), wild type (mouse) (UniProt Q99PF4). The experiment in a line: dynamic light scattering.
The target is the same in data set [2]. As to the kind of experiment: AUC.
The target is the same in data set [3]. As to the kind of experiment: SEC. In general terms: Size exclusion chromatography separates by hydrodynamic size, large species first.
For data set [4] the target is unchanged. The experiment in a line: single-molecule force spectroscopy.
Data set [5] has the same target. The experiment in a line: FRET or BRET. On the technique in general: Bioluminescence resonance energy transfer reports proximity on the nanometre scale.
Data set [6] addresses Cdh23-EC1+2 V3C, labelled with cy3 or cy5 at the N-terminus (mouse). The experiment in a line: FRET or BRET.
Data set [7] deals with the molecule itself. As to the kind of experiment: AUC.

As a reminder, the stoichiometry N is the number of molecules, sites or subunits per partner or assembly. As usually defined, the Kd is the equilibrium constant for the complex coming apart. Read a low Kd as a tighter complex. With “Cdh23-EC1+2 (mouse cadherin-23 extracellular repeats EC1 and EC2), wild type (from UniProt Q99PF4 24-228) (domain or fragment)”, in data set [1], the stoichiometry N worked out at 2. In data set [2], this molecule gave a Kd of 18 µM and a stoichiometry N of 2. Besides, the stoichiometry N in data set [3] turned out to be 2. In data set [4], the percent unbinding events lay in the range of 8 to 10%; the probability of events was determined as 6%; the τ0 (intrinsic lifetime at zero force), high-force distribution is 1220 s; the τ0 (intrinsic lifetime at zero force), low-force distribution is 1.86 s.

Regarding “Cdh23-EC1+2 V3C, labelled with cy3 or cy5 at the N-terminus (domain or fragment)”, the figures for the FRET efficiency in data set [5] and in data set [6] were 0.64 and 0.15, respectively.

B1: Cdh23-EC1 (mouse cadherin-23 extracellular repeat EC1) (domain or fragment, UniProt Q99PF4 24-124, looked up)
chain: QVNRLPFFTNHFFDTYLLISEDTPVGSSVTQLLARDMDNDPLVFGVSGEEASRFFAVEPDTGVVWLRQPLDRETKSEFTVEFSVSDHQGVITRKVNIQVGD
modifications: C-terminus covalently joined by sortase A to GGGGC on PEG-coated coverslips and AFM cantilevers in force spectroscopy
With B1, in data set [7], the “stoichiometry N” value is 2.

The values are drawn from doi:10.1101/208272 (bioRxiv, 2017).
